Results: publication PMC7611867

B1: 32 bp (dsDNA)
DNA 1: TAGCAATGTAATCGTCTATGACGTGATAGCGC
DNA 2: TAGCGCTATCACGTCATAGACGATTACATTGC
B2: 25 bp (dsDNA)
DNA 1: TAGCAATGTAATCGTCTATGACGTT
DNA 2: TAAACGTCATAGACGATTACATTGC
B3: 24 bp (dsDNA)
DNA 1: TAGCAATGTAATCGTCTATGACGT
DNA 2: TAACGTCATAGACGATTACATTGC
B4: 31 bp (dsDNA)
DNA 1: TAGCAATGTAATCGTCTATGACGTGTAGCGC
DNA 2: TAGCGCTACACGTCATAGACGATTACATTGC
B5: 30 bp (dsDNA)
DNA 1: TAGCAATGTAATCGTCTATGACGTTAGCGC
DNA 2: TAGCGCTAACGTCATAGACGATTACATTGC
B6: 33 bp (dsDNA)
DNA 1: TAGCAATGTAATCGTCTATGACGTGCATAGCGC
DNA 2: TAGCGCTATGCACGTCATAGACGATTACATTGC
B7: 34 bp (dsDNA)
DNA 1: TAGCAATGTAATCGTCTATGACGTGTCATAGCGC
DNA 2: TAGCGCTATGACACGTCATAGACGATTACATTGC

Molecular target: T1, Spo11;Rec102;Rec104;Ski8 (Saccharomyces cerevisiae;Saccharomyces …, UniProt P23179;Q02721;P33323;Q02793 1-398;1-264;1-182;1-397, |||)
T1 sequence (P23179 whole entry, chain 1 of 4): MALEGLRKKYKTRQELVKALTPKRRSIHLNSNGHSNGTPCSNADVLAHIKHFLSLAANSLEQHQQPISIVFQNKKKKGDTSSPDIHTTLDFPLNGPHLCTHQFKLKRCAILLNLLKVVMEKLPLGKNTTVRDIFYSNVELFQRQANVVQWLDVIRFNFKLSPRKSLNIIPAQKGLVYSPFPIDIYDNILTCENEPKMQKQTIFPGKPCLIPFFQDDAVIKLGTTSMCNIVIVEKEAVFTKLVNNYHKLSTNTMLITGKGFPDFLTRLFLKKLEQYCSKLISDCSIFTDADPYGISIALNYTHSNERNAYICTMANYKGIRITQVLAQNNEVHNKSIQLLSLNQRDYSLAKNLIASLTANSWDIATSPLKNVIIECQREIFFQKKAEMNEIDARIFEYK
T1 sequence (Q02721 whole entry, chain 2 of 4): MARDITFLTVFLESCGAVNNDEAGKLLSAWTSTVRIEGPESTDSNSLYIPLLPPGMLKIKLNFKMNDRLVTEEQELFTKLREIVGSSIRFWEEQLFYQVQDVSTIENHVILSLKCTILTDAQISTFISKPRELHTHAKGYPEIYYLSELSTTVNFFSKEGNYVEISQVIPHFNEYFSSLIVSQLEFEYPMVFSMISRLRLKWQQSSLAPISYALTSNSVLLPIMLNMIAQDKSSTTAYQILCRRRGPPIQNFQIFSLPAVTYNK
T1 sequence (P33323 whole entry, chain 3 of 4): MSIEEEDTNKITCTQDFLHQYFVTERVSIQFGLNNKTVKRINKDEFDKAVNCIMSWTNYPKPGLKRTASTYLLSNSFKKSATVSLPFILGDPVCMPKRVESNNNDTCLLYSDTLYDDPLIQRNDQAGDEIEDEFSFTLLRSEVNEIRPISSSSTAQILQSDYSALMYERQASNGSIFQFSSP
T1 sequence (Q02793 whole entry, chain 4 of 4): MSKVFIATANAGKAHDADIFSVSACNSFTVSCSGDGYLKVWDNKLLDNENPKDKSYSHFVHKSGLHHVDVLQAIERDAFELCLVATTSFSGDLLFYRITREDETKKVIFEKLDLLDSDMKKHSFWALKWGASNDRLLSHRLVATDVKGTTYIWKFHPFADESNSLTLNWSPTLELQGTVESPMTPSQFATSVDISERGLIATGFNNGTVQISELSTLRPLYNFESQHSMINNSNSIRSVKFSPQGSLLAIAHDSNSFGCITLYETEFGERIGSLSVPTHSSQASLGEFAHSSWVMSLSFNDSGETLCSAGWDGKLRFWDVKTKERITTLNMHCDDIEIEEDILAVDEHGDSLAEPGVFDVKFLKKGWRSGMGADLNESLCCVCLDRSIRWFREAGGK
Experiment: EMSA

Question: Does B1 bind?
Answer: binds

Question: Does B2 bind?
Answer: binds

Question: Does B3 bind?
Answer: binds

Question: Does B4 bind?
Answer: binds

Question: Does B5 bind?
Answer: binds

Question: Does B6 bind?
Answer: binds

Molecular target: T1, Spo11;Rec102;Rec104;Ski8
Experiment: EMSA
Remark: another data set of the same source

Question: Does B7 bind?
Answer: binds
